tested on: ADGRF1; test: Cell-surface expression by flow cytometry, ADGRF1; assay type: cell-based, human; conditions: ADGRF1 constructs (pF1 Gi part of table), anti-Flag antibody, three independent measurements in duplicate
Description: The wild-type ADGRD1 and ADGRF1 and mutants used in functional studies were constructed into a pTT5 vector with a Flag tag at the N terminus for receptor expression measurement. The basal activity of ADGRD1 and ADGRF1 in mediating Gs signalling was measured by a cAMP accumulation assay using a LANCE Ultra cAMP detection kit (PerkinElmer) following the manufacturer’s instruction. In brief, 2 ml HEK293F cells (Invitrogen; cells were routinely tested for mycoplasma contamination) at a density of 1.2 × 10^6 cells per ml were transiently transfected with 2,000 ng plasmid of the wild-type or mutant receptor and cultured at 37 °C for 48 h with 5% CO2 atmosphere in a shaker shaking at 220 rpm. After collection, the cell-surface expression of the receptors was measured by incubating 10 μl cells with 15 μl monoclonal anti-Flag M2-FITC antibody (Sigma; 1:120 diluted in TBS supplemented with 4% BSA and 20% viability staining solution 7-AAD (Invitrogen)) at 4 °C for 20 min. After incubation, 175 μl TBS buffer was added and the fluorescent signal was measured using a flow cytometry reader (Guava easyCyte HT, Millipore).

Molecule | Cell-surface expression (% of WT)
V585^1.36bA (protein, UniProt Q5T601 20-910, looked up, variant V585A) Adhesion G-protein coupled …: GFLGKNDGIKTKKELIVNKKKHLGPVEEYQLLLQVTYRDSKEKRDLRNFLKLLKPPLLWSHGLIRIIRAKATTDCNSLNGVLQCTCEDSYTWFPPSCLDPQNCYLHTAGALPSCECHLNNLSQSVNFCERTKIWGTFKINERFTNDLLNSSSAIYSKYANGIEIQLKKAYERIQGFESVQVTQFRNGSIVAGYEVVGSSSASELLSAIEHVAEKAKTALHKLFPLEDGSFRVFGKAQCNDIVFGFGSKDDEYTLPCSSGYRGNITAKCESSGWQVIRETCVLSLLEELNKNFSMIVGNATEAAVSSFVQNLSVIIRQNPSTTVGNLASVVSILSNISSLSLASHFRVSNSTMEDVISIADNILNSASVTNWTVLLREEKYASSRLLETLENISTLVPPTALPLNFSRKFIDWKGIPVNKSQLKRGYSYQIKMCPQNTSIPIRGRVLIGSDQFQRSLPETIISMASLTLGNILPVSKNGNAQVNGPVISTVIQNYSINEVFLFFSKIESNLSQPHCVFWDFSHLQWNDAGCHLVNETQDIVTCQCTHLTSFSILMSPFVPSTIFPVAKWITYVGLGISIGSLILCLIIEALFWKQIKKSQTSHTRRICMVNIALSLLIADVWFIVGATVDTTVNPSGVCTAAVFFTHFFYLSLFFWMLMLGILLAYRIILVFHHMAQHLMMAVGFCLGYGCPLIISVITIAVTQPSNTYKRKDVCWLNWSNGSKPLLAFVVPALAIVAVNFVVVLLVLTKLWRPTVGERLSRDDKATIIRVGKSLLILTPLLGLTWGFGIGTIVDSQNLAWHVIFALLNAFQGFFILCFGILLDSKLRQLLFNKLSALSSWKQTEKQNSSDLSAKPKFSKPFNPLQNKGHYAFSHTGDSSDNIMLTQFVSNE | 91 ± 21 % of WT
L593^1.47bA (protein, UniProt Q5T601 20-910, looked up, variant L593A) Adhesion G-protein coupled …: GFLGKNDGIKTKKELIVNKKKHLGPVEEYQLLLQVTYRDSKEKRDLRNFLKLLKPPLLWSHGLIRIIRAKATTDCNSLNGVLQCTCEDSYTWFPPSCLDPQNCYLHTAGALPSCECHLNNLSQSVNFCERTKIWGTFKINERFTNDLLNSSSAIYSKYANGIEIQLKKAYERIQGFESVQVTQFRNGSIVAGYEVVGSSSASELLSAIEHVAEKAKTALHKLFPLEDGSFRVFGKAQCNDIVFGFGSKDDEYTLPCSSGYRGNITAKCESSGWQVIRETCVLSLLEELNKNFSMIVGNATEAAVSSFVQNLSVIIRQNPSTTVGNLASVVSILSNISSLSLASHFRVSNSTMEDVISIADNILNSASVTNWTVLLREEKYASSRLLETLENISTLVPPTALPLNFSRKFIDWKGIPVNKSQLKRGYSYQIKMCPQNTSIPIRGRVLIGSDQFQRSLPETIISMASLTLGNILPVSKNGNAQVNGPVISTVIQNYSINEVFLFFSKIESNLSQPHCVFWDFSHLQWNDAGCHLVNETQDIVTCQCTHLTSFSILMSPFVPSTIFPVVKWITYVGAGISIGSLILCLIIEALFWKQIKKSQTSHTRRICMVNIALSLLIADVWFIVGATVDTTVNPSGVCTAAVFFTHFFYLSLFFWMLMLGILLAYRIILVFHHMAQHLMMAVGFCLGYGCPLIISVITIAVTQPSNTYKRKDVCWLNWSNGSKPLLAFVVPALAIVAVNFVVVLLVLTKLWRPTVGERLSRDDKATIIRVGKSLLILTPLLGLTWGFGIGTIVDSQNLAWHVIFALLNAFQGFFILCFGILLDSKLRQLLFNKLSALSSWKQTEKQNSSDLSAKPKFSKPFNPLQNKGHYAFSHTGDSSDNIMLTQFVSNE | 90 ± 6 % of WT
T589^1.40bA (protein, UniProt Q5T601 20-910, looked up, variant T589A) Adhesion G-protein coupled …: GFLGKNDGIKTKKELIVNKKKHLGPVEEYQLLLQVTYRDSKEKRDLRNFLKLLKPPLLWSHGLIRIIRAKATTDCNSLNGVLQCTCEDSYTWFPPSCLDPQNCYLHTAGALPSCECHLNNLSQSVNFCERTKIWGTFKINERFTNDLLNSSSAIYSKYANGIEIQLKKAYERIQGFESVQVTQFRNGSIVAGYEVVGSSSASELLSAIEHVAEKAKTALHKLFPLEDGSFRVFGKAQCNDIVFGFGSKDDEYTLPCSSGYRGNITAKCESSGWQVIRETCVLSLLEELNKNFSMIVGNATEAAVSSFVQNLSVIIRQNPSTTVGNLASVVSILSNISSLSLASHFRVSNSTMEDVISIADNILNSASVTNWTVLLREEKYASSRLLETLENISTLVPPTALPLNFSRKFIDWKGIPVNKSQLKRGYSYQIKMCPQNTSIPIRGRVLIGSDQFQRSLPETIISMASLTLGNILPVSKNGNAQVNGPVISTVIQNYSINEVFLFFSKIESNLSQPHCVFWDFSHLQWNDAGCHLVNETQDIVTCQCTHLTSFSILMSPFVPSTIFPVVKWIAYVGLGISIGSLILCLIIEALFWKQIKKSQTSHTRRICMVNIALSLLIADVWFIVGATVDTTVNPSGVCTAAVFFTHFFYLSLFFWMLMLGILLAYRIILVFHHMAQHLMMAVGFCLGYGCPLIISVITIAVTQPSNTYKRKDVCWLNWSNGSKPLLAFVVPALAIVAVNFVVVLLVLTKLWRPTVGERLSRDDKATIIRVGKSLLILTPLLGLTWGFGIGTIVDSQNLAWHVIFALLNAFQGFFILCFGILLDSKLRQLLFNKLSALSSWKQTEKQNSSDLSAKPKFSKPFNPLQNKGHYAFSHTGDSSDNIMLTQFVSNE | 83 ± 3 % of WT
F641^2.64bA (protein, UniProt Q5T601 20-910, looked up, variant F641A) Adhesion G-protein coupled …: GFLGKNDGIKTKKELIVNKKKHLGPVEEYQLLLQVTYRDSKEKRDLRNFLKLLKPPLLWSHGLIRIIRAKATTDCNSLNGVLQCTCEDSYTWFPPSCLDPQNCYLHTAGALPSCECHLNNLSQSVNFCERTKIWGTFKINERFTNDLLNSSSAIYSKYANGIEIQLKKAYERIQGFESVQVTQFRNGSIVAGYEVVGSSSASELLSAIEHVAEKAKTALHKLFPLEDGSFRVFGKAQCNDIVFGFGSKDDEYTLPCSSGYRGNITAKCESSGWQVIRETCVLSLLEELNKNFSMIVGNATEAAVSSFVQNLSVIIRQNPSTTVGNLASVVSILSNISSLSLASHFRVSNSTMEDVISIADNILNSASVTNWTVLLREEKYASSRLLETLENISTLVPPTALPLNFSRKFIDWKGIPVNKSQLKRGYSYQIKMCPQNTSIPIRGRVLIGSDQFQRSLPETIISMASLTLGNILPVSKNGNAQVNGPVISTVIQNYSINEVFLFFSKIESNLSQPHCVFWDFSHLQWNDAGCHLVNETQDIVTCQCTHLTSFSILMSPFVPSTIFPVVKWITYVGLGISIGSLILCLIIEALFWKQIKKSQTSHTRRICMVNIALSLLIADVWAIVGATVDTTVNPSGVCTAAVFFTHFFYLSLFFWMLMLGILLAYRIILVFHHMAQHLMMAVGFCLGYGCPLIISVITIAVTQPSNTYKRKDVCWLNWSNGSKPLLAFVVPALAIVAVNFVVVLLVLTKLWRPTVGERLSRDDKATIIRVGKSLLILTPLLGLTWGFGIGTIVDSQNLAWHVIFALLNAFQGFFILCFGILLDSKLRQLLFNKLSALSSWKQTEKQNSSDLSAKPKFSKPFNPLQNKGHYAFSHTGDSSDNIMLTQFVSNE | 82 ± 19 % of WT
